Values joined by “and” are separate entries in the source; they are usually repeats but may differ in a detail not shown here. Equal entries are not always repeated.
Target: PKM2 (mouse (endogenous in splenic B cells of C57BL/6J mice)) (UniProt P52480)
Test: cross-linking; lysates of purified CD19+ splenic B cells from C57BL/6J mice cultured with or without Hcy (100 μmol/L) for 24 h, cross-linked with glutaraldehyde; Western blot for PKM2 oligomer states

PKM2, P52480 1-531 (enzyme; other documents disagree on this pair), sequence (P52480 whole entry): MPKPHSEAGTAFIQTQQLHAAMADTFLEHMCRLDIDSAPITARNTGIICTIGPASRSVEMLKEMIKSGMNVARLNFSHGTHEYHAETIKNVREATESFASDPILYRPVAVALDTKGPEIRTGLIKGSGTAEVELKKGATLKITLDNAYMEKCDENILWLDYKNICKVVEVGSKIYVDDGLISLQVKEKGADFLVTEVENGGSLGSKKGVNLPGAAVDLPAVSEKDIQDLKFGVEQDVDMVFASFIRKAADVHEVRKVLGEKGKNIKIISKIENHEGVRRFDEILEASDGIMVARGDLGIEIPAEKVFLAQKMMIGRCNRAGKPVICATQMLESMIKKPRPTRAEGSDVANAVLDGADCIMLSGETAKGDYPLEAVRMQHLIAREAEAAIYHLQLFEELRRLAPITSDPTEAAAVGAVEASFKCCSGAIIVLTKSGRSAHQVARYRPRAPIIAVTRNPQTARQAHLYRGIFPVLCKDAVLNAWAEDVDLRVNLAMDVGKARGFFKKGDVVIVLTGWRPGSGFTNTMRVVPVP

stoichiometry N: 4 and 2
Substance: PKM2, P52480 1-531 (enzyme; other documents disagree on this pair)

Source: paper PMC9226200
